Assay [1] has as its target T1, pEZH2(T367) (endogenous EZH2 phosphorylated at T367) (human (endogenous in MDA-MB-231), UniProt Q15910 1-746, phosphothreonine at 367).
T1 construct: EZH2, endogenous, phosphorylated at T367 by p38; also called phosphorylated EZH2 (T367); source: endogenous, MDA-MB-231 (whole cell extracts; fixed cells for PLA)
The assay is described as follows: co-IP; endogenous proteins from whole cell extracts of MDA-MB-231 cells; magnetic Dynabeads with antibody (EZH2, pEZH2 or vinculin); with or without doxycycline to induce MKK6EE and p38 activation. The following applies: partners not purified.

Assay [2] concerns the target T2, Recombinant vinculin protein (UniProt P18206-2 1-1066).
T2 construct: vinculin, recombinant; The BLI methods describe EZH2 and p38α but say nothing of the vinculin protein
T2 sequence (looked up): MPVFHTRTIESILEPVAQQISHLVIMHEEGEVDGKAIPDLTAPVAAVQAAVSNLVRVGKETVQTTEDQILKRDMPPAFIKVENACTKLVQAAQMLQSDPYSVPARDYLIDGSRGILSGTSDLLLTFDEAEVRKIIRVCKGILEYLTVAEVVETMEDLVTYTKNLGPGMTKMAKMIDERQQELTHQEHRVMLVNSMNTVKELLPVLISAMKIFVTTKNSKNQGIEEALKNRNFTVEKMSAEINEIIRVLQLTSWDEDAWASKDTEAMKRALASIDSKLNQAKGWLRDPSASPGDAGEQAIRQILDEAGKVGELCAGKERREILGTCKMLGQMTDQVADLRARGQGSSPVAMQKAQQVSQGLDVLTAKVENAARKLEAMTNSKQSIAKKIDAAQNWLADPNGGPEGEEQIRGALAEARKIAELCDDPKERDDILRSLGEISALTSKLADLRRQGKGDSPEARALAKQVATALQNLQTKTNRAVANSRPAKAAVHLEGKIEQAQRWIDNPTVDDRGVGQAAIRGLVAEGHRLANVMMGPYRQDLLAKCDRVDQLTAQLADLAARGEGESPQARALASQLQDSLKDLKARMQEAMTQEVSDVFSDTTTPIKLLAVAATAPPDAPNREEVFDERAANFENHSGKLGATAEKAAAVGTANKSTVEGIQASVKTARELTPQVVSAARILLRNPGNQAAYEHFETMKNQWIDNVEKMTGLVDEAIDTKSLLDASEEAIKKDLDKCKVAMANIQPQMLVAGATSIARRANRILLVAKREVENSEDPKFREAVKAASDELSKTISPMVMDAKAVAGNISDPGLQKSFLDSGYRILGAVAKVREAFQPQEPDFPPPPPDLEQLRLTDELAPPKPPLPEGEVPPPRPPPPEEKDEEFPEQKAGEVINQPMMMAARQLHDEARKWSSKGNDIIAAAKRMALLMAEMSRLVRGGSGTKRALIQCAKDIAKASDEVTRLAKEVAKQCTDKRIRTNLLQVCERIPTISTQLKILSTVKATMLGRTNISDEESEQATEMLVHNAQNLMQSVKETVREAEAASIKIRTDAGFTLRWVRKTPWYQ
The assay is described as follows: BLI; same experiment as a1 (EZH2 immobilised, 30 °C, HBS-P); steady state analysis of response against concentration. Conditions: both partners purified. (In general: In BLI a coated tip is dipped into the sample, and binding shifts an interference pattern.)

Assay [3] deals with T2, Recombinant vinculin protein. The assay is described as follows: BLI; biotinylated GST-EZH2 immobilised on Super Streptavidin (SSA) biosensors; analyte in a concentration series; OctetRED96; 30 °C; HBS-P (10 mM HEPES pH 7.4, 150 mM NaCl, 0.005% tween-20); double referencing; kinetic fit, 1:1 binding model. The following applies: both partners purified.

As usually defined, the Kd is the concentration at which binding is half-saturated. In general, koff refers to a measure of how fast the partners let go of each other. For orientation: kon means a measure of how fast the partners come together.

T1 sequence (Q15910 whole entry): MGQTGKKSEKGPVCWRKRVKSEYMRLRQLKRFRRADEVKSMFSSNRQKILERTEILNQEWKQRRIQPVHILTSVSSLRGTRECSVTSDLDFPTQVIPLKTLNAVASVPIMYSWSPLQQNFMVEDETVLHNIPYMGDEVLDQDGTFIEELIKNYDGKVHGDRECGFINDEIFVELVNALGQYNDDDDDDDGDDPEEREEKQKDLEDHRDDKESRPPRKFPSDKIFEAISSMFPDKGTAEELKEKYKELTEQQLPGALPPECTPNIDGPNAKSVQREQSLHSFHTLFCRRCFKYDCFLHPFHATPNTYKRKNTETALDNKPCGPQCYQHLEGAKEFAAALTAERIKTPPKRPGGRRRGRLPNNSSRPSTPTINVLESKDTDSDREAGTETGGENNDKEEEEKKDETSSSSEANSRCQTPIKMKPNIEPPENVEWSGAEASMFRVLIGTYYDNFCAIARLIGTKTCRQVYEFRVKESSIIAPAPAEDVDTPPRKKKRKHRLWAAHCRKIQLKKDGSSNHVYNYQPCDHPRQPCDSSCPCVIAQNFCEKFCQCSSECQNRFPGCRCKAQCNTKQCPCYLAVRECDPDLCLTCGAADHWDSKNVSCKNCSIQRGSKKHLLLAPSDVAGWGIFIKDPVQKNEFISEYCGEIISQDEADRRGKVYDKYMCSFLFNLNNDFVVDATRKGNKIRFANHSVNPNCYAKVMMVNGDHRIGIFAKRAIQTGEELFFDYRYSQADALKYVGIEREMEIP

B1: vinculin (endogenous) (natural protein, human (endogenous in MDA-MB-231), UniProt P18206-2 1-1066, looked up)
chain: T2 sequence (looked up)
notes: vinculin, endogenous; source: endogenous, MDA-MB-231 (whole cell lysate; fixed cells for PLA)
B1: the “fold increase of binding on p38 activation against uninduced controls” value in assay [1] is approximately 10 fold.

B2: Recombinant EZH2 (GST-EZH2 aa 2-end) (natural protein)
chain: not shown
modifications: biotin (Sulpho-NHS-LC-biotin, protein and biotin mixed 1:1 molar ratio)
notes: EZH2 (Enhancer of zeste homolog 2), aa 2-end; GST-EZH2 MW = 114 kDa; The vendor is printed only as 'Bioscience'; also called Enhancer of zeste homolog 2; immobilized EZH2; source: bought: Bioscience (recombinant)
As for B2, the Kd in assay [2] was found to be 42 nM. Moreover, in assay [3], the Kd stood at 15 nM, the koff is 0.00385 s⁻¹ and the kon is 294000 M⁻¹ s⁻¹.

Source of the values: PMC6051995, “p38-mediated phosphorylation at T367 induces EZH2 cytoplasmic localization to promote breast cancer metastasis” (Nature Communications, 2018).
